Two proteins from patent US5879680A, “Cloned DNA for synthesizing unique glucocerebrosidase” (The United States of America as represented by the …, priority 1995, dated 1999) can be followed below.

Substrate in series [1]: Cc1cc(=O)oc2cc(O[C@@H]3O[C@H](CO)[C@@H](O)[C@H](O)[C@H]3O)ccc12
Briefly: purified protein, by the assay type. It is filed as biochemical, human. The conditions noted are these: other: recombinant enzyme in the media, pH 5.9, 100 mM potassium phosphate, 0.15% Triton X-100, 0.125% sodium taurocholate, 37.0 °C. The protocol:
For pH profile and inhibition studies, glucocerebrosidase activity was measured using 100 mM potassium phosphate buffer containing 0.15% Triton X-100, 2.5 μl of β-D-[1-^14 C] glucocerebroside (7.5 mg/ml in sodium taurocholate at 50 mg/ml), and the sample in the total volume of 200 ul. Preincubations with conduritol-B-epoxide were for 30 min at 37° C. […] Purification of recombinant glucocerebrosidase was also monitored using 4MUGP.

Substrate in series [2]: Cc1cc(=O)oc2cc(O[C@@H]3O[C@H](CO)[C@@H](O)[C@H](O)[C@H]3O)ccc12
The series is described as follows: purified protein, by the assay type. Conditions: other: recombinant enzyme in the cell pellet, pH 5.9, 100 mM potassium phosphate, 0.15% Triton X-100, 0.125% sodium taurocholate, 37.0 °C.

B1: recombinant human glucocerebrosidase produced in baculovirus expression system (SF9 cells), culture media enzyme (Homo sapiens) (protein)
chain: ARPCIPKSFGYSSVVCVCNATYCDSFDPPTFPALGTFSRYESTRSGRRMELSMGPIQANHTGTGLLLTLQPEQKFQKVKGFGGAMTDAAALNILALSPPAQNLLLKSYFSEEGIGYNIIRVPMASCDFSIRTYTYADTPDDFQLHNFSLPEEDTKLKIPLIHRALQLAQRPVSLLASPWTSPTWLKTNGAVNGKGSLKGQPGDIYHQTWARYFVKFLDAYAEHKLQFWAVTAENEPSAGLLSGYPFQCLGFTPEHQRDFIARDLGPTLANSTHHNVRLLMLDDQRLLLPHWAKVVLTDPEAAKYVHGIAVHWYLDFLAPAKATLGETHRLFPNTMLFASEACVGSKFWEQSVRLGSWDRGMQYSHSIITNLLYHVVGWTDWNLALNPEGGPNWVRNFVDSPIIVDITKDTFYKQPMFYHLGHFSKFIPEGSQRVGLVASQKNDLDAVALMHPDGSAVVVVLNRSSKDVPLTIKDPAVGFLETISPGYSIHTYLWRRQ
notes: made in house; host or cells: Spodoptera frugiperda SF9 cells, recombinant baculovirus (AcNPV, pAc373/GC)
In general, Km refers to the concentration of substrate that gives half-maximal velocity. B1: in series [1], the Km worked out at 3.3 mM.

B2: recombinant human glucocerebrosidase produced in baculovirus expression system (SF9 cells), cell pellet enzyme (Homo sapiens) (protein)
chain: ARPCIPKSFGYSSVVCVCNATYCDSFDPPTFPALGTFSRYESTRSGRRMELSMGPIQANHTGTGLLLTLQPEQKFQKVKGFGGAMTDAAALNILALSPPAQNLLLKSYFSEEGIGYNIIRVPMASCDFSIRTYTYADTPDDFQLHNFSLPEEDTKLKIPLIHRALQLAQRPVSLLASPWTSPTWLKTNGAVNGKGSLKGQPGDIYHQTWARYFVKFLDAYAEHKLQFWAVTAENEPSAGLLSGYPFQCLGFTPEHQRDFIARDLGPTLANSTHHNVRLLMLDDQRLLLPHWAKVVLTDPEAAKYVHGIAVHWYLDFLAPAKATLGETHRLFPNTMLFASEACVGSKFWEQSVRLGSWDRGMQYSHSIITNLLYHVVGWTDWNLALNPEGGPNWVRNFVDSPIIVDITKDTFYKQPMFYHLGHFSKFIPEGSQRVGLVASQKNDLDAVALMHPDGSAVVVVLNRSSKDVPLTIKDPAVGFLETISPGYSIHTYLWRRQ
For the protein B2, the Km in series [2] worked out at 3.6 mM.
